For 14 sequences, protein production results are on record in a protein production outcome set (Wang et al. 2014).

The data set is described as follows: label from the status in PepcDB records.
As for “ELQAGFDKQEYMETLKINYKVHIALDKWAANTSVADPQDFDFVYRSPVVAFDNIWDLWKHKNKSVALISVQGSIQTEASFLANLYAAMIPAKGELQLDKDFKFTYQLADNPHAAVHVGWFVAMAYLSKTVVSKIDSCYNAGIKDFILTGHSQGGGITFLLNSYLENLKMQGRLPADIRFKTYCSAGPKPGNLFYAYEYEHMTAGGWAYNVVNTADWVPDVPFSVQTVTDFTAVNPFHGAKKAIRKQRFPANLALKHMYNKMSKPSERAQKNYQKYLGRMVSNAVKKQIPNFNAPEYYNSNYYVRTGNTIVLFPDEAYYKIYSNDPEDPNIWRHHLP”, the protein production result is “failed”.
Next, “ELQRRKLLQENILNSIPLPIHIKDVEDDFRYVFCNEESMRMFGTHEGETVCSVLDSEQAERMQKTDLEVFTTGKPYFGVERIILKDGRSYDTIVRKNIIYDGTKRLLLNIRWD”: “failed”; “ELQVIQPEKSVSVAAGESATLRCAMTSLIPVGPIMWFRGAGAGRELIYNQKEGHFPRVTTVSELTKRNNLDFSISISNITPADAGTYYCVKFRKGSPDDVEFKSGAGTELSVRAKPSAPVVSG”: “not failed”; “ELSERQRAEQKLLEVNQLQKGIFDVANYMIISTDRRGIISTFNRTAEEILGYTAAELIGQQTPLIFHDQEEMASEAVQLSQQLQQTIRPNSIDMFAIPAIQWGVYEREWTYITKTGDRLPVYVSITALRDDQGKVDGLVGV”: “failed”.
Next, “ELTAQHVMTPRVRVSALQSSATAEDVVNLTRATGLSRFPVYRDRIDEIVGMVHLKDALAIPSRDRLRTPVGRIAQPPLLVPETLPVQPLLARLRSEQPIAVVVDEYGGTAGVVTLEDIVEELVGEVRDEHDGQDLPELAVAPPEDGRPAWDADGSCRVDILQRIGLDV”: “not failed”; “ELVVKRGEIFGVVGPTGSGKSNLISDIEQLAQGDTPSNRKILVNGNVPDTEMRRDPRKRRIAQLSQNMNFLADMTVEEFLIMHAKSRGMNSEGIVDKVIKLANNLTGEPIEKDYNLTILSGGQSRSLMVADVAVISDSPIVLIDEIENAGIKKHEALELLAGCGKIVMVITHDPVLALMTTRRVVMRNGGMNEIIETTE”: “failed”; “ENEIERPEDMRVRTLANKSKMKVSIVQQIDRKVALDDIAVSHGLDFPELLSEVETIVYSGTRINIDYFINEVMDEDHLEDIFEYFKESTTDSLEEAMQELGKDYSEEEIRLVRIKFLSEMAN”: “not failed”.
As to “EPAEIKIIREAYKKAFLFVNKGLNTDELGQKEEAKNYYKQGIGHLLRGISISSKESEHTGPGWESARQMQQKMKETLQNVRTRLEILEKGLATSLQNDLQEVP”, the protein production result is recorded as “not failed”.
Next, “EPPKLVNDKPHKFKDHFFKKPKFCDVCARMIVLNNKFGLRCKNCKTNIHEHCQSYVEMQRC”: “not failed”; “EQMTRDEIEYMLSKSEATLDAEEIEMLQGVFSLDEMMAREVMVPRTDAFMIDINDDPLENIQEILKQSFSRIPVYDVDKDKIIGLIHTKRLLESGFRQGFDQINMRKMLQEPLFVPETIFVDDLLRQLRNTQNQMAILLDEYGGVAGLVTLEDLLEEIVGEID”: “failed”.
Turning to “EQVFQGKLTTVGNPKGNVTLVEFFDYQCIHCKKMASTIENLVKKDSGLRVIYKEFPIFGKTSDLASRVALAAGMQGKYQAMHNALITIDKRLDEKTVMDAAKSIGLDMQKLKKDMDSQEVTDILDANRQLAEKLHLMGTPAFIIGSTPDGQYKKGSEISFIPGATSEQSLRELIKKAAGN”, the protein production result was “failed”.
Turning to “ERLRGVSVEAPTRTGERWNALMDQIVEGVLAWHRIDSHGCVGNVDSTQENDWFSWYQQRVEVLWATLSNMNSPLMTLEDRAVLYRARAALNSLFAGFDDSSVLVHGNLTLRSMLKDPRSDQLLAMLNPGPMLWAPREYDLFRLSEEGMPSQLFYRYLSKAPVSESFVARRWLYTLWELVSRFIHTGNLDRTLFDNAAQQLLPWLE”, the protein production entry is “failed”.
Next, “ESKSPIIQNVLSYITEHFSEGMSLKTLGNDFHINAVYLGQLFQKEMGEHFTDYLNRYRVNYAKEELLQTKDNLTIIAGKSGYTDMAYFYRQFKKHTGETPNRYRKIHQ”: “not failed”; “ESPLYCVMAKADGPVQGLADLKGRKVGFSVAGIEEALLHTMLRTNGVEPAEVEFVNVNFALTPALASGQADAVAGAFRNFELHQIAAAGSEGRCFLPEENGVPSYEELIYVANPDRMDREKVVAFLKVTERAAGFIADHPEEAWEIFRG”: “failed”.
